Laboratory results as given in the supplement of paper PMC9170038.

System: MS2 coat protein
Assay: apparent KD of MS2 coat protein; designed switch direction (-1 OFF switch, 1 ON switch): -1; higher = weaker reporter binding
Outline: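 Designed RNA switches with common flanks were made on Illumina chips by stalled E. coli RNA polymerase. Titration with SNAP-549-labelled MS2 coat protein doubled from 0.7 or 1.5 nM up to 3 µM. Apparent KD is each design's median over clusters after curve-fitting normalised fluorescence.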

[1] = input ligand: microRNA oligo, concentration not stated
[2] = Eterna round: R95, input ligand: FMN 200 uM
[3] = Eterna round: R95, input ligand: microRNA oligo, concentration not stated
[4] = Eterna round: R95, input ligand: none

Row | Sequence | apparent KD of MS2 coat protein (input ligand: FMN 200 uM) | apparent KD of MS2 coat protein (input ligand: none) | apparent KD of MS2 coat protein [3] | other results
1 | CUAAAUCAUGUAGGAUAUGCGUGGCGAAGCUAUGCAGAAGGACAUGAGGAUCACCCAUGUCUUUCCGUCUGAGUACAGACGGGA [Mat - Exclusion NG 1 - Mod of JL - D45] (Eterna round: R96, puzzle: Exclusion NG 1) | 155 nM | 18 nM | – | apparent KD of MS2 coat protein [1]: 16.4 nM
2 | CUAAUACAUGUGAGGAUAUACGACUUGGAGACGGCGUAGAAGGUACAUGAGGAUCACCCAUGUGCGGGCUCCUU [Eternabot (L1) Solution 49] (Eterna round: R97, puzzle: Brourd's mod of Exclusion 4) | 55.9 nM | 27.5 nM | – | –
3 | CUAGAGUCAGGAUAUACGAGAUCGAAAGAUCGGCGAUCCCUACAUGAGGAUCACCCAUGUAGAAGGGACUCUAG [Mod 11 - Jieux - Exclusion 2] (Eterna round: R97, puzzle: Exclusion 2) | 28.3 nM | 13.8 nM | – | –
4 | CUAGAUCUUCGGAUCUAGUACAUGAGGAUCACCCAUGUUACGAGCAGAUUUUCAUACAAGCUUUUUGCUCGUCUUAU [Sensor v3 - Turn-off variant 1 - 32] (puzzle: Sensor v3, turn-off variant 1) | – | – | 72.4 nM | apparent KD of MS2 coat protein [2]: 24.7 nM; apparent KD of MS2 coat protein [4]: 27.3 nM
5 | CUAGCAAUUGUAGGAUAUCGAUGUGUUUCACAUCGAGAAGGACAUGAGGAUCACCCAUGUGAAAGGAUCGUGAGAUCCAGCUAG [JL ENG1 3.75] (Eterna round: R96, puzzle: Exclusion NG 1) | 96.7 nM | 30.3 nM | – | apparent KD of MS2 coat protein [1]: 23.1 nM
6 | CUAGCUAUUGUAGGAUAUCGAUGUGUUUCACAUCGAGAAGGACAUGAGGAUCACCCAUGUGAAAGGAUCGUGAGAUCCAGCUAG [JL ENG1 3.76] (Eterna round: R96, puzzle: Exclusion NG 1) | 81.9 nM | 23.5 nM | – | apparent KD of MS2 coat protein [1]: 18.7 nM
7 | CUAGUAUAUCAGGAUAUGAUAUUGUGUAGUAAAUCAGAAGGGAUGACAUGAGGAUCACCCAUGUUAAGGGAUGA [JR_Ex6_Sub047] (Eterna round: R97, puzzle: Exclusion 6) | 41.4 nM | 54.3 nM | – | –
8 | CUAGUAUAUCAGGAUAUGAUUUUAUAUAGUGGAUCAGAAGGGAUAACAUGAGGAUCACCCAUGUUAAGGAGUGA [JR_Ex6_Sub041] (Eterna round: R97, puzzle: Exclusion 6) | 129 nM | 49.9 nM | – | –
9 | CUAUCCAGAGGAUAUACGAGAUCGAAAGAUCGGCGAUCCCUACAUGAGGAUCACCCAUGUAGAAGGCUGGAUAG [Mod 17 - Jieux - Exclusion 2] (Eterna round: R97, puzzle: Exclusion 2) | 83.8 nM | 19.7 nM | – | –
10 | CUAUUACGAGGAUAUGAUUUAAAUAACAUGAGGAUCACCCAUGUUUUUACGUUAUUAUGUUUAGAAGGCGUAUUGU [JR_E5_Sub026] (puzzle: Exclusion 5) | – | – | 43.4 nM | –
11 | CUAUUGCGAGGAUAUGAUUUAAAUAACAUGAGGAUCACCCAUGUUUUUACGUUGUUAUGUUCAGAAGGCGUAUUGU [JR_E5_Sub024] (puzzle: Exclusion 5) | – | – | 41.4 nM | –
12 | CUCAUGUGAGGAUAUAGUACUUCUUCUAUUAUUAUUGAGUACUAGAAGGCACAUGAGGAUCACCCAUGUAGUAC [Ex4 - 3 - 44] (puzzle: Exclusion 4) | – | – | 23.8 nM | –
13 | CUCCUCAUGGCGCCUAAACACAUGAGGAUCACCCAUGUACAGGCUUUUUGCCGUCUUAUAAUAAAACCGAGGAUACG [Raaen] (puzzle: Sensor v3, turn-off variant 1) | – | – | 167 nM | apparent KD of MS2 coat protein [2]: 76.3 nM; apparent KD of MS2 coat protein [4]: 149 nM
14 | CUCGGACAUGAGGAUCACCCAUGUGAGGAUAUGAUGCGAUCGUCGAAAGACGAUAGCAUCAGAAGGCACAAAUG [Fiskers Ex 1 - 25] (puzzle: Exclusion 1) | – | – | 73 nM | –
15 | CUCGGACAUGAGGAUCACCCAUGUGAGGAUAUGGCGCGAUCGUCGAAAGACGAUAGCGCCAGAAGGCACAAAUG [LRO-Excl1-26] (puzzle: Exclusion 1) | – | – | 52 nM | –
